Fewer inactive variants are shown than the library holds.
How the values were obtained:
biotinyl-Trp-oxazolone = test: self-aminoacylation, catalytic enhancement (BWO) (fold over background); higher = more active; k-Seq, kA / k0A0; sequences stand for … in GGGAAUGGAUCCACAUCUACGAAUUC…UUCACUGCAGACUUGACGAAGCUG
How it was run: (§1)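 Mutagenized RNA pools with a 21-nt variable region (0.43 μM) reacted with each biotinyl-aminoacyl-oxazolone at 2–1250 μM. Reactions ran in 50 μL HEPES/NaCl/KCl/MgCl2/CaCl2 buffer with 5% acetonitrile, pH 6.9–7.0, for 90 minutes at room temperature. Streptavidin-captured RNA was quantified by triplicate qPCR and Illumina sequencing, and per-sequence fraction reacted was fit to a pseudo-first-order model with 1000 bootstraps. Catalytic enhancement is median kA divided by the uncatalyzed rate, the low-activity peak of a bimodal Gaussian fit.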

biotinyl-Met-oxazolone = test: self-aminoacylation, catalytic enhancement (BMO) (fold over background); higher = more active; k-Seq, kA / k0A0; sequences stand for … in GGGAAUGGAUCCACAUCUACGAAUUC…UUCACUGCAGACUUGACGAAGCUG
How it was run: as §1

biotinyl-Leu-oxazolone = test: self-aminoacylation, catalytic enhancement (BLO) (fold over background); higher = more active; k-Seq, kA / k0A0; sequences stand for … in GGGAAUGGAUCCACAUCUACGAAUUC…UUCACUGCAGACUUGACGAAGCUG
How it was run: as §1

biotinyl-Val-oxazolone = test: self-aminoacylation, catalytic enhancement (BVO) (fold over background); higher = more active; k-Seq, kA / k0A0; sequences stand for … in GGGAAUGGAUCCACAUCUACGAAUUC…UUCACUGCAGACUUGACGAAGCUG
How it was run: as §1

biotinyl-Phe-oxazolone = test: self-aminoacylation, catalytic enhancement (BFO) (fold over background); higher = more active; k-Seq, kA / k0A0; sequences stand for … in GGGAAUGGAUCCACAUCUACGAAUUC…UUCACUGCAGACUUGACGAAGCUG
How it was run: as §1

biotinyl-Ile-oxazolone = test: self-aminoacylation, catalytic enhancement (BIO) (fold over background); higher = more active; k-Seq, kA / k0A0; sequences stand for … in GGGAAUGGAUCCACAUCUACGAAUUC…UUCACUGCAGACUUGACGAAGCUG
How it was run: as §1

Sequence	self-aminoacylation (biotinyl-Trp-oxazolone)	self-aminoacylation (biotinyl-Met-oxazolone)	self-aminoacylation (biotinyl-Leu-oxazolone)	self-aminoacylation (biotinyl-Val-oxazolone)	self-aminoacylation (biotinyl-Phe-oxazolone)	self-aminoacylation (biotinyl-Ile-oxazolone)
AUUACCCUGGCCAUGGAGUGA [Fam2.1 aminoacylation ribozyme variant]	5.9	4.45	4.12	2.79	19.7	3.24
CCACACUUCAAGCAAUCAUUC [Fam1B.1 aminoacylation ribozyme variant]	0.686	0.539	0.56	0.671	1.64	0.649
AUUCACAUAGUUCAUCGGGUG [Fam2.2 aminoacylation ribozyme variant]	2.42	2.76	3.48	2.3	19.2	2.27
AUUACCCUGGUCUUCGAGUGA [Fam2.1 aminoacylation ribozyme variant]	6.84	5.36	5.52	3.3	26.4	3.09
AAUCAACUAGGUCAUCGGGUG [Fam2.2 aminoacylation ribozyme variant]	6.47	5.89	6.32	4.4	39.7	4.49
AUUCACCUAGGUUCUCGGGUG [Fam2.2 aminoacylation ribozyme variant]	2.44	2.88	3.18	2.68	20.4	2.63
AUUCACCUAGGUCCUCGGCUG [Fam2.2 aminoacylation ribozyme variant]	2.67	2.07	2.6	2.25	8.15	2.51
AAGUUUGCUAAUAGCCGCGAG [Fam3.1 aminoacylation ribozyme variant]	1.01	0.916	2.04	1.63	1.6	1.05
AUUACACUGGUCAUCGUGUGA [Fam2.1 aminoacylation ribozyme variant]	3	3.15	2.8	1.56	13.8	1.75
UUACGUCAAACAAUCGGUCUG [Fam1A.1 aminoacylation ribozyme variant]	2.38	1.99	1.58	1.68	6.37	1.98
CCCCACUUCACGCAAUCGGUC [Fam1B.1 aminoacylation ribozyme variant]	4.55	2.31	2.44	2.61	7.33	2.06
AAGUAUGCUAAUAGUUGCAAG [Fam3.1 aminoacylation ribozyme variant]	1.73	1.71	1.11	1.38	2.31	1.44
AUUCACCUAUGUCAUCCGGUG [Fam2.2 aminoacylation ribozyme variant]	5.69	5.26	7.19	3.51	37.6	3.78
AAGCUUGCGAAUAGUCGCAAG [Fam3.1 aminoacylation ribozyme variant]	2.32	2.12	2.2	1.64	2.7	2.39
AUGACCCUGGUCAUCGAAUGA [Fam2.1 aminoacylation ribozyme variant]	1.44	1.46	2.06	1.35	6.66	1.59
AUUGCCAUGGUCAUCGAGUGA [Fam2.1 aminoacylation ribozyme variant]	11.6	9.29	10.1	4.81	53.5	4.75
AAAUUUGCUAAUAGUCGCAGG [Fam3.1 aminoacylation ribozyme variant]	3.16	2.11	2.47	1.79	2.3	1.97
AUUACCCUGGUCUUCUAGUGA [Fam2.1 aminoacylation ribozyme variant]	7.45	5.28	5.65	3.54	23.6	2.92
AUUACCACGGUCAUCGAGUGA [Fam2.1 aminoacylation ribozyme variant]	8.11	6.51	5.96	3.66	38.3	3.48
GCUACCCUGGUCAUCGAGUGA [Fam2.1 aminoacylation ribozyme variant]	15.5	11.4	12.3	6.39	29.5	6.27
CCACACUUCAAACAAUCGGUC [Fam1B.1 aminoacylation ribozyme variant]	47	1.46	2.32	1.53	102	1.38
CUACUUCAAACAAUUGGCCUG [Fam1A.1 aminoacylation ribozyme variant]	2.03	1.11	1.34	1.33	2.28	1.57
AUUCACCUAGGUCAUCUGGUC [Fam2.2 aminoacylation ribozyme variant]	0.378	0.623	0.596	0.686	0.411	0.522
CUGCUUCAAACGAUCGGUCUG [Fam1A.1 aminoacylation ribozyme variant]	3.49	0.991	1.11	0.803	2.63	0.727
AAGUUUGCUAAUAGACGCGAG [Fam3.1 aminoacylation ribozyme variant]	0.812	0.912	0.619	0.64	0.443	0.793
CUACUUCAAAAUAUCGGUCUG [Fam1A.1 aminoacylation ribozyme variant]	0.973	0.936	0.798	0.911	1.01	1.01

Sequence	self-aminoacylation (biotinyl-Trp-oxazolone)	self-aminoacylation (biotinyl-Met-oxazolone)	self-aminoacylation (biotinyl-Leu-oxazolone)	self-aminoacylation (biotinyl-Val-oxazolone)	self-aminoacylation (biotinyl-Phe-oxazolone)	self-aminoacylation (biotinyl-Ile-oxazolone)
AUUAGUCUGGUCAUCGAGUGA [Fam2.1 aminoacylation ribozyme variant]	3.94	3.43	4.42	2.62	13	3.35
AUUCACCUAGCUCAUAGGGUG [Fam2.2 aminoacylation ribozyme variant]	0.658	1.24	1.37	1.13	1.04	1.08
CCACACUUCACGCAAACGGUC [Fam1B.1 aminoacylation ribozyme variant]	0.98	0.793	0.861	0.995	0.827	0.736
AUUUCCCCGGUCAUCGAGUGA [Fam2.1 aminoacylation ribozyme variant]	8.04	5.69	5.8	3.65	32.5	3.34
CCACACUUCAUGCAAUCGGGC [Fam1B.1 aminoacylation ribozyme variant]	1.77	1.25	1.38	1.84	0.961	1.86
AUACACCUAGGUCAUCGGGUA [Fam2.2 aminoacylation ribozyme variant]	5.56	5.4	6.85	4.43	8.32	4.01
GUUCUUCAAACAAUCGGUCUG [Fam1A.1 aminoacylation ribozyme variant]	2.39	1	0.983	0.824	3.63	0.863
CUAGUUCAAACAAUCGGUCUU [Fam1A.1 aminoacylation ribozyme variant]	3.27	1.25	1.26	1.01	5.06	1.14
AGUAACCUAGGUCAUCGGGUG [Fam2.2 aminoacylation ribozyme variant]	7.15	5.37	6.07	3.63	33.3	4.57
AUUCACCAAGGUCUUCGGGUG [Fam2.2 aminoacylation ribozyme variant]	4.45	5.94	6.3	4.41	37.2	4.41
AUUACCAUGGUCAUCGAGUGA [Fam2.1 aminoacylation ribozyme variant]	10.7	8.61	9.28	4.75	12	4.49
AUUAUCCUUGUCAUCGAGUGA [Fam2.1 aminoacylation ribozyme variant]	8.67	6.66	6.7	3.57	25.2	3.49
AAGUUUGCUAAUAGUCGCCCG [Fam3.1 aminoacylation ribozyme variant]	3.76	2.98	3.87	2.69	9.34	3.76
AUUACCCCGGUCAUCGAGUUA [Fam2.1 aminoacylation ribozyme variant]	1.01	1.41	1.16	0.938	1.74	1.17
CUACUUCAAACAUUCCGUCUG [Fam1A.1 aminoacylation ribozyme variant]	1.22	0.79	1.19	1.2	0.631	1.15
AUUUACCUAGGUAAUCGGGUG [Fam2.2 aminoacylation ribozyme variant]	2.92	2.75	3.42	1.78	17.3	1.85
UUUACCCUGAUCAUCGAGUGA [Fam2.1 aminoacylation ribozyme variant]	9.79	8.08	7.11	4.05	23.3	3.92
AUUAACCUGGUCAUGGAGUGA [Fam2.1 aminoacylation ribozyme variant]	4.5	4.08	3.54	2.02	9.66	2.45
AAGUUUGCUACUAGUCGCAUG [Fam3.1 aminoacylation ribozyme variant]	0.836	0.717	0.707	1.09	1.11	0.915
AUUCUCCUAGGUAAUCGGGUG [Fam2.2 aminoacylation ribozyme variant]	4.29	4.1	6.03	2.45	33.1	2.55
CCACACUUCAAGGAAUCGGCC [Fam1B.1 aminoacylation ribozyme variant]	4.4	2.08	2.39	2.4	1.42	1.89
ACACACUUCAAGCAAUCGCUC [Fam1B.1 aminoacylation ribozyme variant]	2.57	1.63	1.75	1.92	2.24	1.84
CCACACUGCAUGCAAUCGGUC [Fam1B.1 aminoacylation ribozyme variant]	0.659	0.803	0.507	0.857	0.714	0.875
AUUACCCUGGUCCGCGAGUGA [Fam2.1 aminoacylation ribozyme variant]	11.5	10.5	11.5	6.47	53.1	6.07
AUUCACCUAGAACAUCGGGUG [Fam2.2 aminoacylation ribozyme variant]	3.56	2.73	2.88	2.47	16.8	2.39

— the supplement of paper PMC9233669
